Test results from patent US20220153803.

## bovine alkaline phosphatase
phospho-Ser^8-glucagon
Sequence of phospho-Ser^8-glucagon (chain, as listed by the source): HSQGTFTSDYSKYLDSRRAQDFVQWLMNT
  Dephosphorylation T50 (mins.) pH 7.4: 94.9 min
phospho-Thr^5-glucagon
  Dephosphorylation T50 (mins.) pH 7.4: 85.9 min
